# Measurements as given in article PMC3154423.
# B1: TRE duplex 15-mer (dsDNA)
# DNA 1: CGCGTGACTCACCCC
# DNA 2: GGGGTGAGTCACGCG
# Key:
# Assay in all cases: ITC
# [1] = molecular target: Jun bZIP K273A;Fos bZIP R143A (human;human, UniProt P05412;P01100 252-315;137-200, K273A|R143A)
# [2] = molecular target: Jun bZIP R270A;Fos bZIP R155A (human;human, UniProt P05412;P01100 252-315;137-200, R270A|R155A)
# [3] = molecular target: Jun bZIP R270A;Fos bZIP R158A (human;human, UniProt P05412;P01100 252-315;137-200, R270A|R158A)
# Chain of Jun bZIP R270A;Fos bZIP R158A (P05412 252-315 R270A, chain 1 of 2): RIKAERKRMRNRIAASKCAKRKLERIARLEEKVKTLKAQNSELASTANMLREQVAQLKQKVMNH
# Chain of Jun bZIP R270A;Fos bZIP R158A (P01100 137-200 R158A, chain 2 of 2): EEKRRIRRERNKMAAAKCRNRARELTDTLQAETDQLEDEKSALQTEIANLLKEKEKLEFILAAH
# [4] = molecular target: Jun bZIP R261A;Fos bZIP K153A (human;human, UniProt P05412;P01100 252-315;137-200, R261A|K153A)
# Chain of Jun bZIP R261A;Fos bZIP K153A (P05412 252-315 R261A, chain 1 of 2): as the sequence (P05412 252-315 R270A, chain 1 of 2) above, with R10A, A19R counted along it
# Chain of Jun bZIP R261A;Fos bZIP K153A (P01100 137-200 K153A, chain 2 of 2): as the sequence (P01100 137-200 R158A, chain 2 of 2) above, with K17A, A22R counted along it
# [5] = molecular target: Jun bZIP R272A;Fos bZIP K148A (human;human, UniProt P05412;P01100 252-315;137-200, R272A|K148A)
# Chain of Jun bZIP R272A;Fos bZIP K148A (P05412 252-315 R272A, chain 1 of 2): as the sequence (P05412 252-315 R270A, chain 1 of 2) above, with A19R, R21A counted along it
# Chain of Jun bZIP R272A;Fos bZIP K148A (P01100 137-200 K148A, chain 2 of 2): as the sequence (P01100 137-200 R158A, chain 2 of 2) above, with K12A, A22R counted along it
# [6] = molecular target: Jun bZIP R259A;Fos bZIP R146A (human;human, UniProt P05412;P01100 252-315;137-200, R259A|R146A)
# Chain of Jun bZIP R259A;Fos bZIP R146A (P05412 252-315 R259A, chain 1 of 2): as the sequence (P05412 252-315 R270A, chain 1 of 2) above, with R8A, A19R counted along it
# Chain of Jun bZIP R259A;Fos bZIP R146A (P01100 137-200 R146A, chain 2 of 2): as the sequence (P01100 137-200 R158A, chain 2 of 2) above, with R10A, A22R counted along it
# [7] = molecular target: Jun bZIP R259A;Fos bZIP R158A (human;human, UniProt P05412;P01100 252-315;137-200, R259A|R158A)
# Chain of Jun bZIP R259A;Fos bZIP R158A (P05412 252-315 R259A, chain 1 of 2): as the sequence (P05412 252-315 R270A, chain 1 of 2) above, with R8A, A19R counted along it
# Chain of Jun bZIP R259A;Fos bZIP R158A (P01100 137-200 R158A, chain 2 of 2): as the sequence (P01100 137-200 R158A, chain 2 of 2) above
# [8] = molecular target: Jun bZIP K268A;Fos bZIP R143A (human;human, UniProt P05412;P01100 252-315;137-200, K268A|R143A)
# Chain of Jun bZIP K268A;Fos bZIP R143A (P05412 252-315 K268A, chain 1 of 2): as the sequence (P05412 252-315 R270A, chain 1 of 2) above, with K17A, A19R counted along it
# Chain of Jun bZIP K268A;Fos bZIP R143A (P01100 137-200 R143A, chain 2 of 2): as the sequence (P01100 137-200 R158A, chain 2 of 2) above, with R7A, A22R counted along it
# [9] = molecular target: Jun bZIP R263A;Fos bZIP R155A (human;human, UniProt P05412;P01100 252-315;137-200, R263A|R155A)
# Chain of Jun bZIP R263A;Fos bZIP R155A (P05412 252-315 R263A, chain 1 of 2): as the sequence (P05412 252-315 R270A, chain 1 of 2) above, with R12A, A19R counted along it
# Chain of Jun bZIP R263A;Fos bZIP R155A (P01100 137-200 R155A, chain 2 of 2): as the sequence (P01100 137-200 R158A, chain 2 of 2) above, with R19A, A22R counted along it
# [10] = molecular target: Jun bZIP R272A;Fos bZIP R155A (human;human, UniProt P05412;P01100 252-315;137-200, R272A|R155A)
# Chain of Jun bZIP R272A;Fos bZIP R155A (P05412 252-315 R272A, chain 1 of 2): as the sequence (P05412 252-315 R270A, chain 1 of 2) above, with A19R, R21A counted along it
# Chain of Jun bZIP R272A;Fos bZIP R155A (P01100 137-200 R155A, chain 2 of 2): as the sequence (P01100 137-200 R158A, chain 2 of 2) above, with R19A, A22R counted along it
# [11] = molecular target: Jun bZIP K258A;Fos bZIP R143A (human;human, UniProt P05412;P01100 252-315;137-200, K258A|R143A)
# Chain of Jun bZIP K258A;Fos bZIP R143A (P05412 252-315 K258A, chain 1 of 2): as the sequence (P05412 252-315 R270A, chain 1 of 2) above, with K7A, A19R counted along it
# Chain of Jun bZIP K258A;Fos bZIP R143A (P01100 137-200 R143A, chain 2 of 2): as the sequence (P01100 137-200 R158A, chain 2 of 2) above, with R7A, A22R counted along it
# [12] = molecular target: Jun bZIP R261A;Fos bZIP R146A (human;human, UniProt P05412;P01100 252-315;137-200, R261A|R146A)
# Chain of Jun bZIP R261A;Fos bZIP R146A (P05412 252-315 R261A, chain 1 of 2): as the sequence (P05412 252-315 R270A, chain 1 of 2) above, with R10A, A19R counted along it
# Chain of Jun bZIP R261A;Fos bZIP R146A (P01100 137-200 R146A, chain 2 of 2): as the sequence (P01100 137-200 R158A, chain 2 of 2) above, with R10A, A22R counted along it
# [13] = molecular target: Jun bZIP R261A;Fos bZIP R144A (human;human, UniProt P05412;P01100 252-315;137-200, R261A|R144A)
# Chain of Jun bZIP R261A;Fos bZIP R144A (P05412 252-315 R261A, chain 1 of 2): as the sequence (P05412 252-315 R270A, chain 1 of 2) above, with R10A, A19R counted along it
# Chain of Jun bZIP R261A;Fos bZIP R144A (P01100 137-200 R144A, chain 2 of 2): as the sequence (P01100 137-200 R158A, chain 2 of 2) above, with R8A, A22R counted along it
# [14] = molecular target: Jun bZIP R263A;Fos bZIP K153A (human;human, UniProt P05412;P01100 252-315;137-200, R263A|K153A)
# Chain of Jun bZIP R263A;Fos bZIP K153A (P05412 252-315 R263A, chain 1 of 2): as the sequence (P05412 252-315 R270A, chain 1 of 2) above, with R12A, A19R counted along it
# Chain of Jun bZIP R263A;Fos bZIP K153A (P01100 137-200 K153A, chain 2 of 2): as the sequence (P01100 137-200 R158A, chain 2 of 2) above, with K17A, A22R counted along it
# Jun-Jun bZIP R272A = Jun-Jun bZIP R272A (human, UniProt P05412 252-315, R272A)
# Chain of Jun-Jun bZIP R272A (P05412 252-315 R272A): as the sequence (P05412 252-315 R270A, chain 1 of 2) above, with A19R, R21A counted along it
# [15] = molecular target: Jun bZIP K268A;Fos bZIP R157A (human;human, UniProt P05412;P01100 252-315;137-200, K268A|R157A)
# Chain of Jun bZIP K268A;Fos bZIP R157A (P05412 252-315 K268A, chain 1 of 2): as the sequence (P05412 252-315 R270A, chain 1 of 2) above, with K17A, A19R counted along it
# Chain of Jun bZIP K268A;Fos bZIP R157A (P01100 137-200 R157A, chain 2 of 2): as the sequence (P01100 137-200 R158A, chain 2 of 2) above, with R21A, A22R counted along it
# Jun-Jun bZIP K258A = Jun-Jun bZIP K258A (human, UniProt P05412 252-315, K258A)
# Chain of Jun-Jun bZIP K258A (P05412 252-315 K258A): as the sequence (P05412 252-315 R270A, chain 1 of 2) above, with K7A, A19R counted along it
# Chain of Jun bZIP R270A;Fos bZIP R155A (P05412 252-315 R270A, chain 1 of 2): as the sequence (P05412 252-315 R270A, chain 1 of 2) above
# Chain of Jun bZIP R270A;Fos bZIP R155A (P01100 137-200 R155A, chain 2 of 2): as the sequence (P01100 137-200 R158A, chain 2 of 2) above, with R19A, A22R counted along it
# Chain of Jun bZIP K273A;Fos bZIP R143A (P05412 252-315 K273A, chain 1 of 2): as the sequence (P05412 252-315 R270A, chain 1 of 2) above, with A19R, K22A counted along it
# Chain of Jun bZIP K273A;Fos bZIP R143A (P01100 137-200 R143A, chain 2 of 2): as the sequence (P01100 137-200 R158A, chain 2 of 2) above, with R7A, A22R counted along it
binder,measurement,setting,value
B1,Kd,[1],1220 ± 150 nM
same,Kd,[2],28900 ± 470 nM
same,Kd,[3],1540 ± 50 nM
same,Kd,[4],610 ± 50 nM
same,Kd,[5],710 ± 20 nM
same,Kd,[6],2260 ± 140 nM
same,Kd,[7],2160 ± 130 nM
same,Kd,[8],720 ± 10 nM
same,Kd,[9],3880 ± 90 nM
same,Kd,[10],2670 ± 130 nM
same,Kd,[11],860 ± 70 nM
same,Kd,[12],1030 ± 20 nM
same,Kd,[13],1840 ± 80 nM
same,Kd,[14],1150 ± 80 nM
same,Kd,Jun-Jun bZIP R272A,490 ± 40 nM
same,Kd,[15],600 ± 30 nM
same,Kd,Jun-Jun bZIP K258A,4430 ± 190 nM
